Assay results as given in patent US7871610B2, “Antibodies to Tie1 ectodomain” (Dyax Corp., priority 2003, dated 2011).

Columns and labels:
HUVEC = experiment: Tube formation assay with HUVEC in collagen gel; assay type: cell-based, human; conditions: collagen I gel; E3 active even at 10 ng/ml (tested 1 ng/ml to 10 μg/ml); E3b-IgG1 tested 1 pg/ml to 10 ng/ml
Protocol: Human Umbilical vein endothelial cells (HUVEC) were obtained by treating fresh human umbilical cord veins with Trypsin-EDTA (1×) (Gibco/Invitrogen) for 20-25 minutes at 37° C. The cells were cultured in a T-25 flask coated with attachment factor (AF), (Cascade Biologics) in RPMI 1640 medium supplemented with 10% FCS, 0.4% BBE, 1% 1-glutamin, 1% penicillin/streptomycin. Primary cultures were detached with warm Trypsin-EDTA and used when confluent at the second or third passage. The cells were maintained in a proliferative state by culturing them in a split ratio 1:2 at an approximate density of the monolayer of about 60-80%. […]
After 2 passages HUVECs were seeded in their culture medium (40.10^3/50 μl/well of a 96-well plate) on a collagen gel (50 μl of collagen I 1.5 mg/ml) prepared by mixing 7.5 volumes of 2 mg/ml collagen (Collagen R; Serva, Heidelberg, Germany), 1 volume of 10×MEM, 1.5 volume of NaHCO3 (15.6 mg/ml) and ˜1 volume of NaOH to adjust the pH to 7.4. […] The total length of the tube network on the culture surface was quantified at ×40 magnification by the METAVUE™ Software (Universal Imaging Corporation). Results from triplicate wells were expressed as mean vessel area per field ±SEM (relative units). […]
Germlined E3 and its parental antibody were evaluated in the tube formation assay in a collagen type-I matrix. […]

Tie1 = Tie1 (Homo sapiens, UniProt P35590); experiment: Tie1 phosphorylation assay in HDMVECs; assay type: cell-based
Protocol: COS1 cells were transfected with pcDNA3-Tie1-V5. After 24 h of transfection, the cells were serum starved for 8 h and then treated with E3 IgG. For the Tie1 phosphorylation assay, HDMVECs were cultured on 10 cm dishes to near confluence, starved (8-16 h) in serum free medium and stimulated as indicated. After the stimulations, the cells were lysed in lysis buffer (RIPA-DOC: 50 mM Tris-HCl pH 8.0, 150 mM NaCl, 1% Triton-X-100, 0.1% SDS, 0.5% DOC, 10 mM EDTA, supplemented with aprotinin, leupeptin, PMSF and sodium vanadate). Clarified lysates from transfected COS1 cells or HDMVECs were immunoprecipitated with anti-V5 or anti-Tie1 B9, respectively. Proteins were separated by SDS-PAGE, transferred to nitrocellulose and immunoblotted using the anti-phosphotyrosine and anti-Tie1 (R&D systems) antibodies.
To test if the E3 IgG binding to the extracellular region of Tie1 induces autophosphorylation of Tie1, the Tie1 receptor phosphorylation level in response to E3 IgG treatment was studied in transiently transfected COS1 cells and human primary endothelial cells. COS1 cells were transfected with an expression vector containing a V5-tagged full length Tie1 cDNA, and, after serum starvation, the cells were treated with E3 IgG (200 ng/ml). Cell lysates were extracted at several time points and Tie1 was immunoprecipitated with anti-V5 followed by western blotting using anti-phosphotyrosine and anti-Tie1 antibodies. […] To determine if E3 IgG induces Tie1 phosphorylation in primary endothelial cells, HDMVEC cells were serum starved and stimulated with several concentrations of E3 for 60 min. […] Also higher concentrations of E3 (500-1000 ng/ml) induced Tie1 phosphorylation but the response was more rapid and was most prominent after 5 min of stimulation.
To study the kinetics of E3 IgG induced Tie1 activation, cells were stimulated with E3 IgG (200 ng/ml) and receptor phosphorylation was studied at various time points. Tie1 phosphorylation was highest 15-30 min after E3 IgG treatment but phosphorylation persisted for up to 1 h.

Chain of Tie1 (P35590 22-1138): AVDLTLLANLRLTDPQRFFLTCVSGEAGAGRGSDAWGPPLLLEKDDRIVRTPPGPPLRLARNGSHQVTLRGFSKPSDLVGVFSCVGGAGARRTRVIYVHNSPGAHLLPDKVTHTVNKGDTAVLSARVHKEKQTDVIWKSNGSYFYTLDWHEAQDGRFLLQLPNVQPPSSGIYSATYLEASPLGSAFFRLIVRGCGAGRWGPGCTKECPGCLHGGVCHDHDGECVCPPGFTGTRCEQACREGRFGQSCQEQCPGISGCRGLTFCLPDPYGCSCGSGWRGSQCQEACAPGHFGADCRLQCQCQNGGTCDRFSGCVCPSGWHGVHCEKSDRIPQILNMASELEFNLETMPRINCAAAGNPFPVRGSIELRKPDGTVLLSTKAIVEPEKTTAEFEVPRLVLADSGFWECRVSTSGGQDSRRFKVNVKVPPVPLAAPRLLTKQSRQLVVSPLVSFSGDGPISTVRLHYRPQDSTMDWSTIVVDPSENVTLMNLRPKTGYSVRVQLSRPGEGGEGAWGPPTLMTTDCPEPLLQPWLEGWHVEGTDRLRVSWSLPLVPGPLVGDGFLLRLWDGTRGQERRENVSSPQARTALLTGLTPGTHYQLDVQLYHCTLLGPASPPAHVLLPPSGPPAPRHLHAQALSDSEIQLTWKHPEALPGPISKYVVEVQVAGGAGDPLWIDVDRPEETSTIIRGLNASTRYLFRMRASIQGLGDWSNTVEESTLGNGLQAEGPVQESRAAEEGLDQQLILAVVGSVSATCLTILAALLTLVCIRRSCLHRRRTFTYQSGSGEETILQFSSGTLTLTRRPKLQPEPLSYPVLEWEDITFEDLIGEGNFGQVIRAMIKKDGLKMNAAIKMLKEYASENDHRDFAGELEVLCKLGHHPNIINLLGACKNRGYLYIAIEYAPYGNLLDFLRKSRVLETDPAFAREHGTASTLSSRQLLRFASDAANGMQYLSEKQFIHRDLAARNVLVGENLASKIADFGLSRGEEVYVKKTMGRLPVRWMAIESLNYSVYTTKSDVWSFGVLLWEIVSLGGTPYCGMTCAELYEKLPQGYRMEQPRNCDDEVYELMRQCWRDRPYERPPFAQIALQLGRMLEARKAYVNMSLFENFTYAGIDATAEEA

B1: E3: human anti-Tie1 antibody from Fab phage library; HC SEQ ID NO:114, LC SEQ ID NO:116 (antibody, V domains shown)
VH: EVQLLESGGGLVQPGGSLRLSCAASGFTFSMYGMVWVRQAPGKGLEWVSVISPSGGNTGYADSVKGRFTISRDNSKNTLYLQVNSLRAEDTAVYYCARAPRGYSYGYYYWGQGTLVTVSSASTKGPSVFPLAPSSKSTSGG
VL: DIQMTQSPLSLSASVGDRVTITCRASQGIGHYLAWYQQKPGKVPKLLIYTASTLQSGVPSRFSGSGSGTDFTLTINSLQPEDVATYYCQQFNSYPHTFGQGTRLDIK
modifications: Synthetically generated peptide
tube formation by HUVECs (HUVEC): potent inhibitor of tube formation | persistence of Tie1 phosphorylation (Tie1; E3 IgG 200 ng/ml): up to 1 h | time of highest Tie1 phosphorylation (Tie1; E3 IgG 200 ng/ml): 15 to 30 min | time of most prominent Tie1 phosphorylation (Tie1; HDMVEC, E3 500-1000 ng/ml): 5 min | concentration showing Tie1 receptor phosphorylation (Tie1; HDMVEC, serum starved, stimulated 60 min): 50 to 200 ng/mL | higher concentrations inducing Tie1 phosphorylation (Tie1; HDMVEC, response more rapid): 500 to 1000 ng/mL
